Source: patent publication US20260242478A1 (published 2026)
Where two headings read alike, the source gives them in different places. Where no end group is shown, it is not given here.

Columns and labels:
[1] = molecular target: T1, PSMA Fab (SEQ ID NOs: 19, 20); test: competition ELISA, peptide titrated against 0.3 nM PSMA Fab on captured biotinylated PSMA
T1 construct: also called 006 PSMA Fab; anti-PSMA Fab

PSMA Fab [2] = molecular target: T2, PSMA Fab (Fab biotinylated for capture on neutravidin plates (site not given)); test: phage ELISA: biotinylated PSMA Fab on neutravidin plate, clonal phage supernatant, anti-M13 HRP; wells pre-incubated with PSMA antigen as competitor
T2 construct: also called Anti-PSMA Fab; 006 PSMA Fab

PSMA Fab [3] = molecular target: T2, PSMA Fab; test: phage ELISA: biotinylated PSMA Fab on neutravidin plate, clonal phage supernatant, anti-M13 HRP; blocking buffer alone
[4] = molecular target: T3, Anti-CD28 Fab (SEQ ID NOs: 696, 697); test: phage binding ELISA; biotinylated anti-CD28 Fab on neutravidin plate, clonal phage supernatant, anti-M13 HRP detection;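 further: wells pretreated with blocking buffer, either plus or minus CD28 antigen, then given crude phage supernatant briefly without washing in between, then washed before anti-M13 HRP readout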
T3 construct: Biotinylated and captured on neutravidin coated plates in the panning ELISA

[5] = molecular target: T3, Anti-CD28 Fab (SEQ ID NOs: 696, 697); test: phage binding ELISA; anti-CD28 Fab on plate pre-incubated with CD28 antigen as competitor, anti-M13 HRP detection
[6] = molecular target: T1, PSMA Fab (SEQ ID NOs: 19, 20); test: competition ELISA, peptide titrated against 0.3 nM PSMA Fab on captured biotinylated PSMA; remark: listed apart in the source
[7] = molecular target: T1, PSMA Fab (SEQ ID NOs: 19, 20); test: as above; remark: listed apart in the source
Ab-15 [8] = test: BLI (Octet): biotinylated peptide on sensor, Ab-15 titrated, 1:1 model
Ab-15 [9] = test: competition ELISA: peptide titrated against 1 nM Ab-15; competitor plate-bound CD28
Ab-15 [10] = test: BLI (Octet): sensor loaded with 200 nM biotinylated peptide, 100 nM Ab-15
Ab-15 [11] = test: binding ELISA: biotinylated peptide on neutravidin plate, Ab-15 titrated
Peptide-233 = molecular target: T4, Peptide-233 (cysteine pairing not given here; also: biotinylated, site not given here); test: BLI, biotinylated peptide on sensor
T4 peptide: GEKWCIPDWMCSGF

Peptide-286 = molecular target: T5, Peptide-286 (cysteine pairing not given here; also: biotinylated (site not given here)); test: BLI, biotinylated peptide on sensor
T5 peptide: VLKYCIPDWMCAGI

Peptide-274 = molecular target: T6, Peptide-274 (cysteine pairing not given here; also: biotinylated, site not given here); test: BLI, biotinylated peptide on sensor
T6 peptide: ITPVCKPLWMCSGL

Peptide-284 = molecular target: T7, Peptide-284 (cysteine pairing not given here; also: biotinylated (site not given here)); test: BLI, biotinylated peptide on sensor
T7 peptide: TEVRCTPPWMCLGF

Peptide-277 = molecular target: T8, Peptide-277 (cysteine pairing not given here; also: biotinylated (site not given here)); test: BLI, biotinylated peptide on sensor
T8 peptide: VVIKCKPEWMCSGF

Peptide-239 = molecular target: T9, Peptide-239 (cysteine pairing not given here; also: biotinylated, site not given here); test: BLI, biotinylated peptide on sensor
T9 peptide: IDIRCTPIWMCVGF

Peptide-268 = molecular target: T10, Peptide-268 (cysteine pairing not given here; also: biotinylated, site not given here); test: BLI, biotinylated peptide on sensor
T10 peptide: VEKVCKPVWMCVGF

Peptide-225 = molecular target: T11, Peptide-225 (cysteine pairing not given here; also: biotinylated, site not given here); test: BLI, biotinylated peptide on sensor
T11 peptide: IPKSCIPSWMCTGF

Peptide-235 = molecular target: T12, Peptide-235 (cysteine pairing not given here; also: biotinylated, site not given here); test: BLI, biotinylated peptide on sensor
T12 peptide: VEKLCTPIWMCLGF

Peptide-283 = molecular target: T13, Peptide-283 (cysteine pairing not given here; also: biotinylated (site not given here)); test: BLI, biotinylated peptide on sensor
T13 peptide: TVAYCKPAWMCQGF

Peptide-227 = molecular target: T14, Peptide-227 (cysteine pairing not given here; also: biotinylated, site not given here); test: BLI, biotinylated peptide on sensor
T14 peptide: LDNWCKPSWMCTGF

Peptide-236 = molecular target: T15, Peptide-236 (cysteine pairing not given here; also: biotinylated, site not given here); test: BLI, biotinylated peptide on sensor
T15 peptide: DVKLCKPEWMCYGL

Peptide-282 = molecular target: T16, Peptide-282 (cysteine pairing not given here; also: biotinylated (site not given here)); test: BLI, biotinylated peptide on sensor
T16 peptide: IVVKCVPSWMCEGF

Peptide-285 = molecular target: T17, Peptide-285 (cysteine pairing not given here; also: biotinylated (site not given here)); test: BLI, biotinylated peptide on sensor
T17 peptide: VERLCTPAWMCHGF

Peptide-271 = molecular target: T18, Peptide-271 (cysteine pairing not given here; also: biotinylated, site not given here); test: BLI, biotinylated peptide on sensor
T18 peptide: EDILCKPKWMCEGF

Peptide-267 = molecular target: T19, Peptide-267 (cysteine pairing not given here; also: biotinylated, site not given here); test: BLI, biotinylated peptide on sensor
T19 peptide: FTNYCVPSWMCTGF

Peptide-263 = molecular target: T20, Peptide-263 (cysteine pairing not given here; also: biotinylated, site not given here); test: BLI, biotinylated peptide on sensor
T20 peptide: AVKACIPEWMCIGF

Peptide-270 = molecular target: T21, Peptide-270 (cysteine pairing not given here; also: biotinylated, site not given here); test: BLI, biotinylated peptide on sensor
T21 peptide: ESRLCVPAWMCAGF

Peptide-232 = molecular target: T22, Peptide-232 (cysteine pairing not given here; also: biotinylated, site not given here); test: BLI, biotinylated peptide on sensor
T22 peptide: LDKWCVPKWMCSGL

Peptide-230 = molecular target: T23, Peptide-230 (cysteine pairing not given here; also: biotinylated, site not given here); test: BLI, biotinylated peptide on sensor
T23 peptide: VTKWCIPPWMCEVT

Peptide-219 = molecular target: T24, Peptide-219 (cysteine pairing not given here; also: biotinylated, site not given here); test: BLI, biotinylated peptide on sensor
T24 peptide: HVKLCKPAWMCQGL

anti-CD28 Fab = test: competition ELISA: peptide titrated (0-100 µM) with 1 nM anti-CD28 Fab, binding to plate-bound CD28
[12] = molecular target: T25, anti-CD28 scFv (disulfide); test: competition ELISA: peptide titrated (0-100 µM) with 0.3 nM anti-CD28 scFv (disulfide), binding to plate-bound CD28
T25 construct: also called Anti-CD28 scFv (VH - linker 1 - VL) Disulfide mutation: G44C, G235C

## YECHQGLFHRWCVN (cysteine pairing not given here; also: biotinylated (site not given here), PSMA peptide mask (P2)) [Peptide-185]
[1]
  IC50: 23 µM

## IECAYMTDQRFWCW (cysteine pairing not given here; also: biotinylated (site not given here), PSMA peptide mask (P2)) [Peptide-188]
[1]
  IC50: 7.22 µM

## APRMCSPPWMCYEL (peptide, not shown: large carriers, Clonal phage of the Peptide-180 library) [Phage-4013]
PSMA Fab [2]
  phage binding ELISA signal: 0.0661
PSMA Fab [3]
  phage binding ELISA signal: 0.416

B1: Phage-1706 (clonal phage displaying a Peptide-92 library peptide, SEQ ID NO: 2002) (peptide)
peptide: GCAAGFHYTLSTCL
modifications: cysteine pairing not given here; also: displayed as fusion to phage pIII, linker and order of fusion not given here
notes: not shown: pIII filament protein of the bacteriophage to which the peptide is fused
[4]
  Anti-CD28 Fab signal (phage binding ELISA): 0.42
[5]
  Anti-CD28 Fab signal in the presence of CD28 (phage binding ELISA): 0.05

## LMKWCTPRWMCAAE (cysteine pairing not given here; also: biotinylated (site not given here), PSMA peptide mask (P2)) [Peptide-179]
[1]
  IC50: 4.44 µM
[6]
  IC50: 4.6 µM

## FEVRCVPTWMCAGQ (peptide, not shown: large carriers, Clonal phage of the Peptide-180 library) [Phage-4010]
PSMA Fab [2]
  phage binding ELISA signal: 0.069
PSMA Fab [3]
  phage binding ELISA signal: 0.427

## HCKFHDYHSWYMCY (cysteine pairing not given here; also: biotinylated (site not given here), PSMA peptide mask (P2)) [Peptide-175]
[7]
  IC50: 17.8 µM

## GWRQCEPVWMCSGF (peptide, not shown: large carriers, Clonal phage of the Peptide-180 library) [Phage-4011]
PSMA Fab [2]
  phage binding ELISA signal: 0.0672
PSMA Fab [3]
  phage binding ELISA signal: 0.423

## PELRCVPFWMCSFN (cysteine pairing not given here; also: biotinylated (site not given here), PSMA peptide mask (P2)) [Peptide-181]
[1]
  IC50: 11.2 µM
[6]
  IC50: 26.1 µM

## PLCGTEEVWWECRL (cysteine pairing not given here; also: biotinylated (site not given here), PSMA peptide mask (P2)) [Peptide-166]
[7]
  IC50: 19.2 µM

## MRSVCVPSWMCSGF (peptide, not shown: large carriers, Clonal phage of the Peptide-180 library) [Phage-4012]
PSMA Fab [2]
  phage binding ELISA signal: 0.176
PSMA Fab [3]
  phage binding ELISA signal: 0.422

## IDWCPRYLWDECYN (cysteine pairing not given here; also: biotinylated, site not given here, CD28 peptide mask) [Peptide-71]
Ab-15 [8]
  Kd: 0.016 µM
  t1/2: 9.1 min
Ab-15 [9]
  IC50: 0.14 µM
Ab-15 [10]
  Octet signal (200 nM peptide): 1.52
Ab-15 [11]
  EC50: 0.0021 µM

## PDCVYHSFWGYSCR (cysteine pairing not given here; also: biotinylated (site not given here), PSMA peptide mask (P2)) [Peptide-178]
[7]
  IC50: 20.8 µM

B2: Phage-1704 (clonal phage displaying a Peptide-92 library peptide, SEQ ID NO: 2000) (peptide)
peptide: SCAAGAGYGWPQCL
modifications: cysteine pairing not given here; also: displayed as fusion to phage pIII, linker and order of fusion not given here
notes: as for B1
[4]
  Anti-CD28 Fab signal (phage binding ELISA): 0.55
[5]
  Anti-CD28 Fab signal in the presence of CD28 (phage binding ELISA): 0.13

B3: PSMA Fab (SEQ ID NOs: 19, 20) (Fab, V domains shown)
VH: QVQLVESGGGVVQPGRSLRLSCAASGFAFSRYGMHWVRQAPGKGLEWVAVIWYDGSNKYYADSVKGRFTISRDNSKNTQYLQMNSLRAEDTAVYYCARGGDFLYYYYYGMDVWGQGTTVTVSS
VL: DIQMTQSPSSLSASVGDRVTITCRASQGISNYLAWYQQKTGKVPKFLIYEASTLQSGVPSRFSGGGSGTDFTLTISSLQPEDVATYYCQNYNSAPFTFGPGTKVDIKR
notes: also called 006 PSMA Fab; anti-PSMA Fab
Peptide-233
  binding result: binds
Peptide-286
  binding result: binds
Peptide-274
  binding result: binds
Peptide-284
  binding result: binds
Peptide-277
  binding result: binds
Peptide-239
  binding result: binds
Peptide-268
  binding result: binds
Peptide-225
  binding result: binds
Peptide-235
  binding result: binds
Peptide-283
  binding result: binds
Peptide-227
  binding result: binds
Peptide-236
  binding result: binds
Peptide-282
  binding result: binds
Peptide-285
  binding result: binds
Peptide-271
  binding result: binds
Peptide-267
  binding result: binds
Peptide-263
  binding result: binds
Peptide-270
  binding result: binds
Peptide-232
  binding result: binds
Peptide-230
  binding result: binds
Peptide-219
  binding result: binds

## IAVLCQPNWMCAGF (cysteine pairing not given here; also: biotinylated (site not given here), PSMA peptide mask (P2)) [Peptide-180]
[1]
  IC50: 4.54 µM
[6]
  IC50: 4.5 µM

B4: Phage-1705 (clonal phage displaying a Peptide-92 library peptide, SEQ ID NO: 2001) (peptide)
peptide: SCGGGFHYSWPLCF
modifications: cysteine pairing not given here; also: displayed as fusion to phage pIII, linker and order of fusion not given here
notes: as for B1
[4]
  Anti-CD28 Fab signal (phage binding ELISA): 0.55
[5]
  Anti-CD28 Fab signal in the presence of CD28 (phage binding ELISA): 0.15

## SCAAGASYAWPACL [Peptide-105]
anti-CD28 Fab
  IC50: 13 µM
[12]
  IC50: 56.9 µM

## YECHQGLFHRWCVN (cysteine pairing not given here; also: biotinylated (site not given here), PSMA peptide mask (P2)) [Peptide-158]
[7]
  IC50: 17.3 µM
